Laboratory results reported in patent US20230095569A1 (published 2023).
Where a chain is given by its changes, count along the chain named.

B1: chAb17 (antibody, V domains shown)
VH: QVQLKESGPGLVAPSQSLSITCTVSGFSLTSYAISWVRQPPGKGLEWLGEIWTGGGTNYNSALKSRLSISKDNSKSQVFLKMNSLQTDDTARYYCGRLSYGNSLDYWGQGTTLTVSS
VL: DIVMTQSPSSLTVTAGEKVTMSCKSSQSLLNSGNQKNYLTWYQQKPGQPPKLLIYWASTRESGVPDRFTGSGSGTDFTLTVSSVQAEDLAVYYCQNNFIYPLTFGPGTKLELK
B2: chAb15 (antibody, V domains shown)
VH: EVMLVESGGDLVKPGGSLKLSCAASGFTFSTYTMSWVRQTPEKRLEWVATIVGGGGYTYYLDSVKGRFTISRDNAKNTLYLQMISLRSEDTALYYCARMGLTQRNALDYWGQGTSITVSS
VL: DIVMTQSPSSLSVSEGEKVTLNCKSSQSLFNSGNQKNYLAWYQQKPGQPPKLLIYGASTRESGVPDRFTGSGFGTDFTLTISSVQAEDLAVYYCQNDHTYPLTFGAGAKLELK
B3: chAb10 (antibody, V domains shown)
VH: EVMLVESGGGLVKPGGSLKLSCAASGFTFSSYTMSWVRQTPEKRLEWVATISVIGGNTYYVDSVKGRFTISRDKAKNTLYLQMSSLRSEDTALYYCARLGQTQRNAMDYWGQGTSVTVSS
VL: B2 VL with E15A, L21M, N22S, F30L, F73S, H98Y, T99S, A108T
B4: humanized Ab17 (VH5×VLN1) (antibody, V domains shown)
VH: QVQLQESGPGLVKPSQTLSLTCTVSGFSLTSYAISWVRQPAGKGLEWLGEIWTGGGTNYNSALKSRVSISKDNSKSQVFLKLSSVTAADTARYYCGRLSYGNSLDYWGQGTLVTVSS
VL: DIVMTQSPDSTTVLLGERATINCKSSQSLLNSGNQKNYLAWYQQKPGQPPKLLIYWASTRESGVPDRFSGSGSGTDFTLTISSLQAEDVAVYYCQNNFIYPLTFGPGTKLEIK
B5: humanized Ab10 (VH3×VLN1) (antibody, V domains shown)
VH: B3 VH with M3Q, K13Q, K19R, T40A, S84N, S88A, S115L
VL: B4 VL with T11L, T12A, L14S, L15A, I21M, W56G, N97D, F98Y, I99S, P106A
B6: humanized Ab10 (VHN1×VLN1) (antibody, V domains shown)
VH: B3 VH with K13Q, K19R, E42G, A75S, S84N, S88A, L93V, S115L
VL: B4 VL with T11L, T12A, L14S, L15A, I21M, W56G, N97D, F98Y, I99S, P106A
B7: humanized Ab15 (VH3×VLN1) (antibody, V domains shown)
VH: B2 VH with D10G, L11V, K13Q, K19R, I84N, S88T, S115L
VL: B4 VL with T11L, T12A, L14S, L30F, W56G, S73F, N97D, F98H, I99T, P106A
B8: humanized Ab17 (VH1×VLN1) (antibody, V domains shown)
VH: B4 VH with Q5K, Q16E, A41P, T86Q
VL: B4 VL
B9: humanized Ab15 (VHN1×VL2) (antibody, V domains shown)
VH: B2 VH with D10G, K13Q, K19R, E42G, A75S, I84N, S88A, L93V
VL: DIVMTQSPLSLPVTPGEPASISCKSSQSLFNSGNQKNYLAWYLQKPGQPPKLLIYGASTRESGVPDRFTGSGFGTDFTLKISRVEAEDVGVYYCQNDHTYPLTFGAGTKLEIK
B10: IMB362 (antibody, V domains shown)
VH: QVQLQQPGAELVRPGASVKLSCKASGYTFTSYWINWVKQRPGQGLEWIGNIYPSDSYTNYNQKFKDKATLTVDKSSSTAYMQLSSPTSEDSAVYYCTRSWRGNSFDYWGQGTTLTVSS
VL: DIVMTQSPSSLTVTAGEKVTMSCKSSQSLLNSGNQKNYLTWYQQKPGQPPKLLIYWASTRESGVPDRFTGSGSGTDFTLTISSVQAEDLAVYYCQNDYSYPFTFGSGTKLEIKR
B11: Ab10 (antibody, V domains shown)
VH: B3 VH
VL: B2 VL with E15A, L21M, N22S, F30L, F73S, H98Y, T99S, A108T
B12: Ab17 (antibody, V domains shown)
VH: B1 VH
VL: B1 VL
B13: Ab15 (antibody, V domains shown)
VH: B2 VH
VL: B2 VL
B14: IMAB362 (antibody, V domains shown)
VH: B10 VH
VL: B10 VL

What follows are binders tested against T1, human Claudin18.2 (CLDN18.2) (UniProt P56856 1-261) (assay: FACS cell binding; GAXC031 cells).
B1 showed an EC50 of 47 nM.
For B2, the EC50 was 25.1 nM.
With B3 the EC50 was 49.2 nM.
B4 showed an EC50 of 48.9 nM.
In the case of B5, the EC50 is reported as 60.9 nM.
B6 showed an EC50 of 43.8 nM.
Work on B7 yielded an EC50 of 28.6 nM.
B8 showed an EC50 of 43.7 nM.
Binder B9 has an EC50 of 32.2 nM.

These binders were tested against SNU620 cells (UniProt P56856 1-261) (assay: FACS cell binding; SNU620 cells).
B10 gave an EC50 of about 7540 nM.

These binders were tested against T1, human Claudin18.2 (CLDN18.2) (assay: FACS cell binding; KATO III cells).
With B11 the EC50 was 20.9 nM.
Work on B12 yielded an EC50 of 39.3 nM.
For B13, the EC50 was 27.2 nM.

The binders below were run against GAXC031 cells (UniProt P56856 1-261) (assay: FACS cell binding; GAXC031 cells).
For B14, the EC50 was 452 nM.

Each binder was assayed against T1, human Claudin18.2 (CLDN18.2) (assay: FACS cell binding; SNU620 cells).
In the case of B11, the EC50 is reported as 5.54 nM.
In the case of B12, the EC50 is reported as 10.8 nM.
With B13 the EC50 was 5.32 nM.
